The record followed here is US11311610B2, “Immune-modulating agents and uses therefor” (UNIVERSITY OF TECHNOLOGY SYDNEY, priority 2010, dated 2022).

A short description of assay [1]: LPS-binding ELISA. On the set-up: species or system E. coli. To be noted: for binding to immobilised LPS: 0.02-2 μg/well on LPS-coated plate (100 ng/well). The method, then: (§1) FIG. 9 is a graphical representation showing LPS neutralization by FhHDM-1. The ability of FhHDM-1 (Δ), FhHDM-1 p1 (●) or FhHDM-1 p3 (▪) to bind to LPS was investigated by (A) incubating a range of concentrations of proteins (0.02-2 μg/well) in an LPS-coated (100 ng/well) microtitre plate. Bound peptides were detected by ELISA using rabbit anti-FhHDM-1 as a primary antibody. (B) FhHDM-1 or derived peptides (0.1 μg) were incubated in the presence of LPS (0.05-5 μg/well) and bound peptides measured as described above. Binding of peptides to the LPS-immobilized plates was expressed as a percentage of that measured for 2 μg (for panel A) or 0.1 μg (for panel B) of FhHDM-1. Data are the means±SD from three separate experiments. (C) FhHDM-1 and FhHDM-1 p3 but not FhHDM-1 p1 reduced the interaction between LPS and LBP as effectively as LL-37. LPS-coated microtitre plates were incubated with 5 μg/well of LL-37, FhHDM-1 or derived peptides for 1 h prior to the addition of 10% human sera in PBS. Interaction of LBP with LPS was measured by ELISA using an anti-LBP primary antibody and expressed as a percentage of that detected for 10% sera in the absence of added peptides. Data are the mean±SD of three separate experiments. Statistical significance was calculated using the student t-test and represent a comparison to the binding of 10% sera to immobilized LPS. (D) Binding of FITC-conjugated LPS to RAW264.7 cells was inhibited by LL-37, FhHDM-1 and peptides. […] The binding of FITC-LPS was analyzed by flow cytometry. LPS binding was expressed as a percentage of the mean fluorescence obtained for the addition of FITC-LPS to cells in the absence of peptides. […] Two hours later, sera was collected and serum levels of TNF and (F) IL-10 measured by ELISA. (G) Peritoneal macrophages were isolated, cultured unstimulated in media overnight and then levels of TNF and (H) IL-10 in the culture measured by ELISA. […]
The ability of FhHDM-1 and derived peptides to bind LPS from E. coli 0111:B4 was determined by ELISA using rabbit anti-FhHDM-1 as a primary antibody (FIG. 9A). […]
In general terms: In an ELISA, binding on a coated surface is turned into a signal by an enzyme label.

Assay [2] relates to interaction of LPS with LPS-binding protein (LBP). The assay can be described thus: Assay for the interaction of LPS with LBP (ELISA). Details: species or system mouse. The following applies: 5 μg/well, 1 h before 10% sera; ELISA with anti-LBP. As to the method: as §1
The ability of FhHDM-1 and derived peptides to block the interaction of LPS with LPB was assessed by ELISA using an anti-LBP primary antibody. […]

Assay [3] has as its system RAW264.7 cells. Briefly: Binding of FITC-conjugated LPS to RAW 264.7 cells (flow cytometry). The class given is cell-based, murine. The following applies: 0.1-10 μg/mL, 20 min at 4° C. As to the method:
as §1
The effect of FhHDM-1 and derived peptides on the binding of FITC-LPS to CD14+ cells was determined by flow cytometry of the murine macrophage cell line RAW264.7. […]

In the case of “KARDRAMAYLAKDNLGEKITEVITILLNRL (FhHDM-1 peptide 1 comprising a truncated amphipathic helix contained in FhHDM-1) [FhHDM-1 p1, peptide in which the amphipathic helix is truncated]”, the “binding to immobilised LPS” value in assay [1] is “did not bind to LPS”. Further, the “interaction between LPS and LBP” value in assay [2] is “did not block”. Moreover, in assay [3], the “binding of FITC-LPS to RAW264.7 macrophages” value is listed as “reduced binding of FITC-LPS to the cells in a dose-dependent manner albeit to a lesser extent”.

B1: FhHDM-1: 90-residue polypeptide from F. hepatica, Helminth Defense Molecule-1 (SEQ ID NO:24); recombinant form minus N-terminal signal peptide, expressed in E. coli (protein, listed as Fasciola hepatica)
chain: MRFIVLLCLAEVLLAAYVEARPSEESREKLRESGRKMVKALRDAVTKAYEKARDRAMAYLAKDNLGEKITEVITILLNRLTDRLEKYAGN
Take B1: in assay [1] (0.1 μg/well with LPS 0.05-5 μg/well), the “binding to free LPS in solution (competition with immobilised LPS)” value is “bound to free LPS in solution”. Moreover, the “binding to immobilised LPS” value in assay [1] is given as “bound to LPS in a concentration-dependent manner”. Moreover, the “interaction between LPS and LBP” value in assay [2] is “significantly reduced”. For the same molecule, in assay [3], the “binding of FITC-LPS to RAW264.7 macrophages” value is recorded as “reduced binding of FITC-LPS to the cells in a dose-dependent manner albeit to a lesser extent”.
